According to patent US20060052582A1 (published 2006):

Columns and labels:
[1] = target: T1, endogenous Nercc1 kinase of human cells (p120) (human, UniProt Q8TD19 2-979); test: anti-FLAG immunoaffinity purification from HEK293 cells; associated band identified by mass spectrometry
T1 construct: Endogenous 120 kDa protein
T1 sequence: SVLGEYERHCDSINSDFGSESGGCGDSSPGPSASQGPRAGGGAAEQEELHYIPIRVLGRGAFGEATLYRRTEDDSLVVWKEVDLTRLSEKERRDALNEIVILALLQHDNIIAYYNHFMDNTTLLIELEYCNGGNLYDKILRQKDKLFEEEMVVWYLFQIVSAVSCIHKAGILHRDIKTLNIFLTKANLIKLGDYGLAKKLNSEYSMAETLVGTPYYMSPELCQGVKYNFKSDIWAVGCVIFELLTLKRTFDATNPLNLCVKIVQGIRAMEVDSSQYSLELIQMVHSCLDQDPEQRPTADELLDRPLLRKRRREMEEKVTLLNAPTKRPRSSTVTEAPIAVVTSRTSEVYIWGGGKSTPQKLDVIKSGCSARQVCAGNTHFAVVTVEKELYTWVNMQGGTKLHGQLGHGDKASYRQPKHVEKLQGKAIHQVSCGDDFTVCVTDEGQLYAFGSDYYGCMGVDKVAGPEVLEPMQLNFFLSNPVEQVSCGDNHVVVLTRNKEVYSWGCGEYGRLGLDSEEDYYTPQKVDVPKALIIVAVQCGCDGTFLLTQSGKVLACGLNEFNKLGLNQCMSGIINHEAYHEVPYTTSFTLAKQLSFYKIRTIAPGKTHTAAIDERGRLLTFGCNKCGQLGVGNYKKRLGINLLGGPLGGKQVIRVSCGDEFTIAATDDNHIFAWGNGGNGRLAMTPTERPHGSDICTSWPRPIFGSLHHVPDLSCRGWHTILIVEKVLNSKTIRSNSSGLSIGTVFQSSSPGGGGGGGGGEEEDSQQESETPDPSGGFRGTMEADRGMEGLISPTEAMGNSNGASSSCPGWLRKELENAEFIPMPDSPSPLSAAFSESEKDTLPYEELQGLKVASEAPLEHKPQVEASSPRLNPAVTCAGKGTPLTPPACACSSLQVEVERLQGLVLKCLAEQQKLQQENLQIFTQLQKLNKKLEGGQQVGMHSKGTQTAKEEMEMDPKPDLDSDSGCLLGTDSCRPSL
Description: Immunoaffinity purification of a FLAG Nek6 polypeptide overexpressed in HEK293 cells results in the recovery of an associated 120 kilodalton (kDa) polypeptide (p120). […] The 120 kDa band was excised, subjected to tryptic digestion in situ, microcapillary reverse-phase HPLC and peptide sequence analysis by electrospray ionization mass spectrometry. Spectra corresponding to multiple peptide sequences were identified on each of three successive open reading frames (ORFs) predicted by […] (Burge et al., J. Mol. Biol., 268: 78-94 (1997)) on the human BAC clone 201F1 (AC007055). […] Further analysis of the genomic sequences including and surrounding all three ORFs, using both […] (Borodovsky et al., Computers and Chem., 17: 123-133 (1993)) or […] yielded predictions containing all three original ORFs (AAD31938, AAD31939 and AAD31940) in polypeptides of around 100 kDa (107 kDa and 91 kDa, respectively).

[2] = target: HA wild type Ran (UniProt P62826 1-216); test: co-expression and co-immunoprecipitation
Description: To address more directly the relative binding in vivo of Nercc to Ran-GDP compared to Ran-GTP, the cytoplasmic wild type Nercc and a nuclear form of full length Nercc (NLS-Nercc) were each co-expressed with wild type Ran or Ran mutants that bind GDP (T24N) or GTP (G19V) exclusively; either Ran or Nercc was immunoprecipitated and probed for the association with the other polypeptide. The full-length wild type Nercc bound co-expressed wild type Ran and Ran T24N to a greater extent than RanG19V.

[3] = target: T2, FLAG Nercc (full-length wild type Nercc1 kinase with FLAG epitope tag) (human, UniProt Q8TD19 1-979); test: binding test of co-expressed proteins; details not given
T2 construct: Expressed in HEK293 cells; also called FLAG Nercc1; FLAG Nercc full length (FL)
T2 sequence: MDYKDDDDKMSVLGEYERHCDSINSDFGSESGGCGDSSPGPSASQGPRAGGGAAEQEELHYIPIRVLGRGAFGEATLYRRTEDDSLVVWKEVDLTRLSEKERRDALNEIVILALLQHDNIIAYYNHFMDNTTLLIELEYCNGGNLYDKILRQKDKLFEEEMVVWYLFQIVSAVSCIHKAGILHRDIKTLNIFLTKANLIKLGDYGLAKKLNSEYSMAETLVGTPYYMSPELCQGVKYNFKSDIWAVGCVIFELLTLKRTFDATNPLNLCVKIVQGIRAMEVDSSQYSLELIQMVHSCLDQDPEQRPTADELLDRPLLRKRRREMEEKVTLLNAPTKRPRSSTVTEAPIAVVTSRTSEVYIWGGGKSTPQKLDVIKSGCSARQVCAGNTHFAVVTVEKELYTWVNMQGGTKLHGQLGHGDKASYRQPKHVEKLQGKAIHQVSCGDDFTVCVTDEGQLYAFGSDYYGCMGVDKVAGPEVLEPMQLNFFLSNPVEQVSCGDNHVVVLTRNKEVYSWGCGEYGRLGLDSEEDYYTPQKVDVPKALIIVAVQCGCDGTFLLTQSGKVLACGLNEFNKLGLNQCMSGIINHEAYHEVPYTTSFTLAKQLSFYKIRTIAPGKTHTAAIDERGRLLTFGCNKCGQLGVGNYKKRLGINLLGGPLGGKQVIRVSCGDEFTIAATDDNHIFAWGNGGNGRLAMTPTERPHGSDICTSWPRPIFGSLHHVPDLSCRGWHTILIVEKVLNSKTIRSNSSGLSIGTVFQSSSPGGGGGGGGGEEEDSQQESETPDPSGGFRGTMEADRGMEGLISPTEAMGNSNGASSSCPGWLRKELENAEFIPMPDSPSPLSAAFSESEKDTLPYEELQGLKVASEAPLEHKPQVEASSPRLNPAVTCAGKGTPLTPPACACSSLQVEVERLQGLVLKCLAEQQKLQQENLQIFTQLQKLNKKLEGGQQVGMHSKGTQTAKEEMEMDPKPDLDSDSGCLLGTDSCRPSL

[4] = target: T3, FLAG Nercc (1-891) (human, UniProt Q8TD19 1-891); test: as above
T3 sequence: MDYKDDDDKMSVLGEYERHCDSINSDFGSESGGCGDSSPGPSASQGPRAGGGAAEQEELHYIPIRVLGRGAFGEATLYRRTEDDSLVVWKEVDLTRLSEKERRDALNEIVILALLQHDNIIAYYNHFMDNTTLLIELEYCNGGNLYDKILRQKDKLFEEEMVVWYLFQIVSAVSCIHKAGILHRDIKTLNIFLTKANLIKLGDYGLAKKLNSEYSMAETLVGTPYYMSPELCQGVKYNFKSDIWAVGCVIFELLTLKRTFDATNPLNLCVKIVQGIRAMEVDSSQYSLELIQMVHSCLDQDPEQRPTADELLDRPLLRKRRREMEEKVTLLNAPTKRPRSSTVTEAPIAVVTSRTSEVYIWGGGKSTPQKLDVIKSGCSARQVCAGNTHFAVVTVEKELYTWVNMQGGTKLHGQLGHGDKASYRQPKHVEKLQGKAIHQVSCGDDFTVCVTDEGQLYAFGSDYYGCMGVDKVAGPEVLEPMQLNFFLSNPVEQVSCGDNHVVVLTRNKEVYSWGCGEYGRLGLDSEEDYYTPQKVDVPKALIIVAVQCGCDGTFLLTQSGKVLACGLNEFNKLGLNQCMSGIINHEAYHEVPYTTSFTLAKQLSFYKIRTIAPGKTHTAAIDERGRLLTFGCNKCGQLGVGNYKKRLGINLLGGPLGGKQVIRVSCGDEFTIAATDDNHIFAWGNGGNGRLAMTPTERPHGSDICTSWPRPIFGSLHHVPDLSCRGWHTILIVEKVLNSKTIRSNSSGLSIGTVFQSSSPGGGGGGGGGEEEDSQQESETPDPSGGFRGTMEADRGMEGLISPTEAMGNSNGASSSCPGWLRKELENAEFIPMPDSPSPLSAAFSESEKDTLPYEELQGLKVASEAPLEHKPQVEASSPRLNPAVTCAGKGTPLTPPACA

B1: FLAG Nek6 (enzyme)
chain: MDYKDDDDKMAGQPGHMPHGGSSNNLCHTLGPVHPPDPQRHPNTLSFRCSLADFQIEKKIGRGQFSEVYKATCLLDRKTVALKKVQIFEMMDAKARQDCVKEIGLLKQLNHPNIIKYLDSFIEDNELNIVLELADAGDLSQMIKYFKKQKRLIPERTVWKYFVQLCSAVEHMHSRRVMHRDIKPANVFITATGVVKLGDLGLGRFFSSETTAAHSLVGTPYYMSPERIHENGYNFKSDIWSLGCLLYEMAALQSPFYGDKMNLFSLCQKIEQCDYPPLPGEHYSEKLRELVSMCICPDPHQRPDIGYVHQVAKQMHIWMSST
notes: Expressed in HEK293 cells; runs as a doublet (phosphorylated and unphosphorylated); also called wild type FLAG Nek6
binding result [1]: binds

B2: Nek6 (tag of the construct not stated) (enzyme)
chain: not shown
binding result [2]: no binding | binding result [3]: binds | binding result [4]: binds
